Target: T1, LRP6 (Homo sapiens, UniProt O75581)
T1 construct: made in house; host or cells: Tni insect cells (baculovirus, secreted)
T1 sequence (O75581 20-1253): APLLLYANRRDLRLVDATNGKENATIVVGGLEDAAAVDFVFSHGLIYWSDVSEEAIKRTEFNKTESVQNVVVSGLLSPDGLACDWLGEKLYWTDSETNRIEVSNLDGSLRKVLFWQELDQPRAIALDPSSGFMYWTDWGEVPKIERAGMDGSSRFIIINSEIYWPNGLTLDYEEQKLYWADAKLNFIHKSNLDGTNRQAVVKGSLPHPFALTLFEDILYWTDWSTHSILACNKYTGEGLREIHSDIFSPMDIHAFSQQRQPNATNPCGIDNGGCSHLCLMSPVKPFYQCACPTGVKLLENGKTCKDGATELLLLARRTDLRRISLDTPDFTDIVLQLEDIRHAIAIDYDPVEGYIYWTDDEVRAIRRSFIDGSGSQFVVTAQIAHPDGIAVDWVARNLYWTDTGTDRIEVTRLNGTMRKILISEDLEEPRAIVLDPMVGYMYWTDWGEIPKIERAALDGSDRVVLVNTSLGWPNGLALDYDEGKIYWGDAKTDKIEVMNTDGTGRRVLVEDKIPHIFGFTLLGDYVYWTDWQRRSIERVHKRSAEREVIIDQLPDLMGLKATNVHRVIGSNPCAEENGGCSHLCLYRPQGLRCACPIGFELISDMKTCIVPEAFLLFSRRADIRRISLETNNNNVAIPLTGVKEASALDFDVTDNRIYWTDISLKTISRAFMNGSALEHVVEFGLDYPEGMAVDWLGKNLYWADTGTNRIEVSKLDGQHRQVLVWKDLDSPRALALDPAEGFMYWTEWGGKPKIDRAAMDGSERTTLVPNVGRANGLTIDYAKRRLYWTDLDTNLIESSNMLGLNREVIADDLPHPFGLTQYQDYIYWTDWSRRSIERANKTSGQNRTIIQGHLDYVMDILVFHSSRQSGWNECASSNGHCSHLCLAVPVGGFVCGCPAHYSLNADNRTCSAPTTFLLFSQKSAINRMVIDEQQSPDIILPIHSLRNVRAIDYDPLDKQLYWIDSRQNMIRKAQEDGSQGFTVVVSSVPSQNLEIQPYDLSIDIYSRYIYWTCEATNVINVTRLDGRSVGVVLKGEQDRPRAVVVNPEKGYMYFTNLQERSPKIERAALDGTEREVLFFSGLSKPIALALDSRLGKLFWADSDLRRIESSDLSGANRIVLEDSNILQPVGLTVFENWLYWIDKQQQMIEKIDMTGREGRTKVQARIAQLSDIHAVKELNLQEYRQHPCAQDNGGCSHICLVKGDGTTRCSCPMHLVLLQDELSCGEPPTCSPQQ
Assay: Biolayer interferometry binding to any LRP6 construct tested
Experimental: Binding kinetics were measured by biolayer interferometry using an Octet Red instrument (ForteBio) as previously described (11). Streptavidin (SA) biosensors were loaded with biotinylated hLRP6 in 50 mMTris, pH 8, 300 mM NaCl, 5% (v/v) glycerol, and 0.05% (w/v) Triton X-100. The loaded biosensors were washed in the same buffer before carrying out association and dissociation measurements for the indicated times. The Kd of each interaction was determined using steady state-analysis through the Octet Red software v6.3. Each reported value represents an average of three or more experiments at different concentrations, with a fitted experimental curve for which the square of the correlation coefficient (R^2) is above 0.96.
The interaction of the different Dkks and sclerostin with various domains of LRP6 was measured using a biolayer interferometry assay (11). Purified receptors contained individual β-propeller-EGF-like units (E1, E2, or E4), two β-propellers (E1E2 or E3E4), or four β-propellers (E1E4))—as follows:
Human LRP6: construct E1E4-amino acids A20-Q1253 of LPR6; construct E1E2-amino acids A20-E631 of LPR6; construct E3E4 amino acids E631-Q1253 of LPR6; construct E1-amino acids A20-D325 of LPR6; construct E2-amino acids […]-E631 of LPR6; construct E4-T933-Q1253. The individual LRP6 β-propeller E3 could not be expressed.

## Dkk3: Dickkopf 3, carrier-free protein from R&D Systems
  binding to any LRP6 construct tested: failed to bind

From patent publication US20140235820A1, “METHODS AND COMPOSITIONS FOR MODULATING THE Wnt PATHWAY” (Genentech, Inc., priority 2010, published 2014)
